Test results taken from publication PMC12284271, “Coupling chromosome organization to genome segregation in Archaea”.
Values belong to the molecule of their own block, whether it stands above or below them.

Columns and labels:
[1] = tested on: T1, SegB (SegBSs) (Saccharolobus (Sulfolobus) solfataricus P2), ORF:2e81311c; assay: AFM; settings: EMSA and footprint: 10 mM Tris-HCl pH 7.5, 50 mM KCl, 1 mM DTT, 5 mM MgCl2, 2.5% glycerol, 0.05% NP-40, 1 ug poly(dI-dC), 37 C, 20 min, DNA 1-5 nM
T1 sequence: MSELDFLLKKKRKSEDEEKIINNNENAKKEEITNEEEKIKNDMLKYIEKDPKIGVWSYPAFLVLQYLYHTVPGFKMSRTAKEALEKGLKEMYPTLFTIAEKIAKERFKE

[2] = tested on: T1, SegB (SegBSs) (Saccharolobus (Sulfolobus) solfataricus P2), ORF:2e81311c; assay: EMSA; settings: EMSA and footprint: 10 mM Tris-HCl pH 7.5, 50 mM KCl, 1 mM DTT, 5 mM MgCl2, 2.5% glycerol, 0.05% NP-40, 1 ug poly(dI-dC), 37 C, 20 min, DNA 1-5 nM
[3] = tested on: T1, SegB (SegBSs) (Saccharolobus (Sulfolobus) solfataricus P2), ORF:2e81311c; assay: DNase I footprinting; settings: EMSA and footprint: 10 mM Tris-HCl pH 7.5, 50 mM KCl, 1 mM DTT, 5 mM MgCl2, 2.5% glycerol, 0.05% NP-40, 1 ug poly(dI-dC), 37 C, 20 min, DNA 1-5 nM
[4] = target: SegB (Saccharolobus solfataricus) (S. solfataricus); assay: MST; SegB labelled with NT-647 at 304 nM final; unlabelled SegA serially diluted 1:1 over fifteen tubes; 10 mM Tris-HCl pH 7.4, 100 mM NaCl, 0.05% Tween 20; 20% LED power, 40% MST power
SegB (SegBSa) = target: T2, SegB (SegBSa) (Sulfolobus acidocaldarius, UniProt Q4JC57 1-151); assay: EMSA; EMSA and footprint: 10 mM Tris-HCl pH 7.5, 50 mM KCl, 1 mM DTT, 5 mM MgCl2, 2.5% glycerol, 0.05% NP-40, 1 ug poly(dI-dC), 37 C, 20 min; DNA 1-5 nM, SegB 0-1000; settings: protein: recombinant; (pET22b NdeI/XhoI); chain copies: 2; label: 5' biotin on strand 1; blunt
T2 sequence: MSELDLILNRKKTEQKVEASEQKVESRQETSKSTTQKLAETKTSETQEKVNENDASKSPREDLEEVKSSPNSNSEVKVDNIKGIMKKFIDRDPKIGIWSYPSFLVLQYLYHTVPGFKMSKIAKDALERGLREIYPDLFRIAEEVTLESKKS

Molecule: AGTAAGATAAATTTACTGAAGTCGTTGTTTTGCCTACTCCTCCTTTCTGATTTATTACTGTGACTATCATGTCTAGACTCTTCTATCTATAACGTTTAATAAGGAATTCTACATGATAATACTGACGAGTCCACCATATTATAATGATAATATTTATATGCTAGATTTTTAAAAAGTATAAGTATGTTTGAGAAGCTCTATAGTGCAATAATTTATTCTGATGAATTTAAAAAAATACTATTGGGAAGAGGTGTAGATGACTTAGAGATAGCTTCAGCCTACATAGCGT (double strand) [289 bp segAB upstream fragment (sites 1, 2, 3)]
binding [1]: binds

Molecule: CTCAGCTGTCGGTAATACGATTTAGAAAGGATGAAATCGCTTATTCAATTTACTCTAATAAGCGACTAGAGTCTATAAGAAACACTCTAGAGTATTCTACCATAGAGGGAGAAGGCTTATTCAATGGATGCATTCTATGCGGTAAATGTGTTAGTGTTTGCCCTTACGGTAAACAAACTAATGACGTATTCCATACTCCT (double strand) [peak B-3 fragment]
binding [2]: binds
binding [3]: binds

Molecule: GAATGTCACAAGGTTCTTTTCCTATATACTTAAAACAAGAGAAAAGTAGAGAAATATTCTATTATACTCTCTTTTTCCTAAATTTTAATCTTAAACTTAAGGGAAGTAGAGTCTAGACTCACGTTAGGGTATGAAATTATCTCATCCTAATTTTTATTTGGCATAACGCTAATATGAAAAACATAAATAGTTAGAGTGTT (double strand) [peak D fragment]
binding [2]: binds
binding [3]: binds

Molecule: GCATCTATGGCATCTGAATTGGGTATATAACCATATTCTACTTCTATTCCCATATCTTCATCACTAACGTAGAGATCAAGTAGTTTTCCTTTCTTCTCATACTCCACGAATACTCTATAGCCTAGACTCTTGAAGTAAGCAGATAATATTAATTGTAGACTGGAGTGGTTAATATTTGTGAATCCTAATTCATAAAAATC (double strand) [peak B-5 fragment]
binding [2]: binds
binding [3]: binds

Molecule: GCTCGTAATTGAGGCCAAAATTCACAAAAATGATTACCTACAGACTCTAGAGTACTCTAAATATTTCAAGTACGGTATGGCAGTATTTCCATTTACTGGAGAGTGTAGAGTACCTAAAGGTTGGATTTGTATATTTAACACCACAAAGGATCAGTCTAGATTCTACTCTCTTCTTGAAGATTTATTATCTAGAGTTAAGT (double strand) [peak B-6 fragment]
binding [2]: binds
binding [3]: binds

Kd [4]: 46 nM
Molecule: SegA (Saccharolobus solfataricus) (natural protein)

B1: saci0204(-47) 50 bp oligonucleotide (dsDNA)
DNA 1: TTATGAGAAGAATCTGAAATAAAGGGTATAGAGTTAAGAGTCTATATATG
DNA 2: CATATATAGACTCTTAACTCTATACCCTTTATTTCAGATTCTTCTCATAA
binding result (SegB (SegBSa)): binds
